Molecular target: human transforming growth factor β2 (TGFβ2) (human) (UniProt P61812)
Assay: cell-based or functional assay

Sequence of human transforming growth factor β2 (TGFβ2) (human) (P61812 303-414 limits assumed): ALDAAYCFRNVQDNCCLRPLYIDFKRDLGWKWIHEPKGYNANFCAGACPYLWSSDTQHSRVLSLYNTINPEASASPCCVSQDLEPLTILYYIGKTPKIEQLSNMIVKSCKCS

Ki, reversal of TGFβ2-mediated inhibition of 3H-thymidine incorporation in mink lung epithelial cells: 0.5 nM
Substance: latency-associated protein (LAP)

Reference: patent publication US6346611
